The results in this text go back to PMC12354898, “Collagen VI microfibril structure reveals mechanism for molecular assembly and clustering of inherited pathogenic mutations” (Nature Communications, 2025).

The target of the assay is T1, mini-collagen VI α1 chain, ColVIα1^C1C2 (human, UniProt P12109 566-1028).
T1 construct: human collagen VI α1 chain, UniProt P12109 aa 566-1028: nine Gly-X-Y triplets, coiled coil region, C1 and C2 vWA domains; Synthetic gene cloned into pHLSec with AgeI and XhoI; one chain of the disulphide-bonded heterotrimer α1α2α3^C1C2; also called α1 chain of α1α2α3^C1C2; source: Expi293F, co-transfected with the other two chains, secreted; in conditioned media, and purified (Strep-Tactin XT, …)
T1 sequence (looked up): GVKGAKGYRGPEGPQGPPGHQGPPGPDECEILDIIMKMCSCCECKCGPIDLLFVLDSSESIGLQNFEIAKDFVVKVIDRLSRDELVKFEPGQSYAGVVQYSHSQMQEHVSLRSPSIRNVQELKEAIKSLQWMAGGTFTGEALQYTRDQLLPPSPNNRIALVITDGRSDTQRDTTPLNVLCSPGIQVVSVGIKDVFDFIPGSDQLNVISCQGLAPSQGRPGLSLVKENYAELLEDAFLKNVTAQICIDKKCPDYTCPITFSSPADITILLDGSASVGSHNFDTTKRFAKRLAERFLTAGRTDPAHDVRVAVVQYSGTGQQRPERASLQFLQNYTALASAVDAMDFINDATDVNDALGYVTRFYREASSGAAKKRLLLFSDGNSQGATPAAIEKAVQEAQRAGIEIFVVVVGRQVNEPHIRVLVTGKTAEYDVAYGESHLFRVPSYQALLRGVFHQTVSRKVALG
The assay can be described thus: pull-down; three chains co-expressed in Expi293F; sequential affinity steps from conditioned media (Strep-Tactin XT for Twin-Strep α2, Ni-Sepharose for His α1, anti-FLAG M2 for α3; Fig. 5f: Twin-strep then His-tag); eluates on reduced and non-reduced SDS-PAGE. As to conditions: partners not purified.

B1: mini-collagen VI α2 chain, ColVIα2^C1C2 (domain or fragment, human, UniProt P12110 564-1019, looked up)
chain: GEPGPRGPRGVPGPEGEPGPPGDPGLTECDVMTYVRETCGCCDCEKRCGALDVVFVIDSSESIGYTNFTLEKNFVINVVNRLGAIAKDPKSETGTRVGVVQYSHEGTFEAIQLDDERIDSLSSFKEAVKNLEWIAGGTWTPSALKFAYDRLIKESRRQKTRVFAVVITDGRHDPRDDDLNLRALCDRDVTVTAIGIGDMFHEKHESENLYSIACDKPQQVRNMTLFSDLVAEKFIDDMEDVLCPDPQIVCPDLPCQTELSVAQCTQRPVDIVFLLDGSERLGEQNFHKARRFVEQVARRLTLARRDDDPLNARVALLQFGGPGEQQVAFPLSHNLTAIHEALETTQYLNSFSHVGAGVVHAINAIVRSPRGGARRHAELSFVFLTDGVTGNDSLHESAHSMRKQNVVPTVLALGSDVDMDVLTTLSLGDRAAVFHEKDYDSLAQPGFFDRFIRWIC
notes: human collagen VI α2 chain, UniProt P12110 aa 564-1019: nine Gly-X-Y triplets, coiled coil region, C1 and C2 vWA domains; Synthetic gene cloned into pHLSec with AgeI and XhoI; density for two N-linked glycans on this chain in the cryoEM map; also called α2 chain of α1α2α3^C1C2; source: Expi293F, co-transfected with the other two chains, secreted; in conditioned media, and purified (Strep-Tactin …)
As to B1, the binding result is “binds”.
